This note sets out measurements from US11649285B2.

Where only a bound is given, the exact number is not on record here.

The target of assay [1] is human VISTA, native (on anti-CD3-activated human T cells and PBMCs) (human (homo sapiens)).
Assay [2] shares this target. The source holds these as a separate data set.

B1: Recombinant human VSIG3 Fc Chimera (Fc fusion)
chain: LEVSESPGSIQVARGQTAVLPCTFTTSAALINLNVIWMVTPLSNANQPEQVILYQGGQMFDGAPRFHGRVGFTGTMPATNVSIFINNTQLSDTGTYQCLVNNLPDIGGRNIGVTGLTVLVPPSAPHCQIQGSQDIGSDVILLCSSEEGIPRPTYLWEKLDNTLKLPPTATQDQVQGTVTIRNISALSSGLYQCVASNAIGTSTCLLDLQVISPQPRNIGLIAG
In assay [1], B1 yielded an ED50 of inhibition of MIP-1 alpha secretion, anti-CD3-activated human PBMCs (Quantikine ELISA) of 0.5 µg/mL; an ED50 of inhibition of Rantes secretion, anti-CD3-activated human PBMCs (Quantikine ELISA) of 0.5 µg/mL; a concentration at which inhibition of CXCL11 secretion occurred, anti-CD3-activated human PBMCs (Quantikine ELISA) of 2 µg/mL; a concentration at which inhibition of IL-17 secretion occurred, anti-CD3-activated human PBMCs (Quantikine ELISA) of 10 µg/mL. Further, the division of CFSE-labeled human CD3+ T cells with plate-bound anti-CD3 and rhVSIG-3 10 µg/mL, flow cytometry (% CD3+ T cells dividing (72 hours)) in assay [2] is < 25.
